Legend:
[1] = target: T1, Rv2887 (MarR family regulator) (Mycobacterium tuberculosis H37Rv) (UniProt P9WME9); assay: DNase I footprinting
T1 sequence: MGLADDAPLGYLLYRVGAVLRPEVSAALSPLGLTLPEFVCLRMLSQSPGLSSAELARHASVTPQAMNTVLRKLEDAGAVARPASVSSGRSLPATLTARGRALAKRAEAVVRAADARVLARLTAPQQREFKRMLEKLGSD

[2] = target: T1, Rv2887 (MarR family regulator) (Mycobacterium tuberculosis H37Rv); assay: EMSA
[3] = target: T2, Rv2887 (crystal with DNA) (Mycobacterium tuberculosis H37Rv, UniProt P9WME9 1-139); assay: X-ray crystal structure (2.5 A); conditions: protein: recombinant; tags: N-terminal 6xHis (pET-28a); chain copies: 4; blunt
T2 sequence: T1 sequence

CGAACTCAAGATCCAGCGATTCAGTCATGTGTTCATATATATCAACGGCCCTGATATATGTCAACACAGTTGACATTCGCGCACCCTTGGTTGCCGGCCGTCAGCTGAACGGCGGTCGTCGATCGACGAGCCGGGACAATTGACCGCCACCGCGCCACACCCGCGCCACCCAGTCGCGGTCGTCGTCGGTGACCAGATTGGACATCACCCGCACGGCGATGTTCATCAATGCGGTGGAGCGCATCGTGATGGGC (double strand) [Rv0560c upstream probe (6-FAM)]
binding [1]: binds

CGAACTCAAGATCCAGCGATTCAGTCATGTGTTCATATATATCAACGGCCCTGATATATGTCAACACAGTTGACATTCGCGCACCCTTGGTTGCCGGCCGTCAGCTGAACGGCGGTCGTCGATCGACGAGCCGGGACAATTGACCGCCACCGCGCCACACCCGCGCCACCCAGTCGCGGTCGTCGTCGGTGACCAGATTGGACATCACCCGCACGGCGATGTTCATCAATGCGGTGGAGCGCATCGTGATGGGC (double strand) [Rv0560c upstream probe (biotin)]
binding [2]: binds

B1: 30 bp Rv0560c operator duplex (dsDNA)
DNA 1: CGATCGACGACCGCCGTTCAGCTGACGTCG
DNA 2: CGACGTCAGCTGAACGGCGGTCGTCGATCG
binding result [3]: binds

— PMC5526998, “Structural analysis of the regulatory mechanism of MarR protein Rv2887 in M. tuberculosis” (Scientific Reports, 2017)
